Laboratory results reported in patent publication US8088387B2, “Method of targeting specific cell populations using cell-binding agent maytansinoid conjugates linked via a non-cleavable linker, said conjugates, and methods of making said conjugates” (Immunogen Inc., priority 2003, dated 2012).

Assays:
[1] = system: esterase; test: esterase cleavage of the C-3 ester; type: in vitro ADME
From the text: Some linkers can be cleaved by esterases. Again only certain esters can be cleaved by esterases present inside or outside cells. Esters are formed by the condensation of a carboxylic acid and an alcohol. Simple esters are esters produced with simple alcohols, such as aliphatic alcohols, and small cyclic and small aromatic alcohols.

[2] = system: L1210 cells; settings: treatment of L1210 cells in vivo; cited from earlier work
[3] = system: P388 murine leukemic cell suspension; settings: in vitro; most sensitive line; cited from earlier work
[4] = system: L1210 murine leukemic cell suspension; settings: in vitro; cited from earlier work
[5] = system: LY5178 murine leukemic cell suspension; settings: in vitro; cited from earlier work
[6] = system: human nasopharyngeal carcinoma cells; settings: cited from earlier work
[7] = system: human acute lymphoblastic leukemia line C.E.M.; settings: cited from earlier work
[8] = system: P388 lymphocytic leukemia system; settings: in vivo; cited from earlier work
[9] = system: L1210 mouse leukemia system; settings: cited from earlier work
[10] = system: Lewis lung carcinoma system; settings: cited from earlier work
[11] = system: human B-16 melanocarcinoma system; settings: cited from earlier work
[12] = human, in vivo; cited from earlier work
[13] = plasma clearance of conjugates; type: in vivo; settings: plasma, conjugate, FIG. 11
From the text: This is in sharp contrast to plasma clearance of conjugates prepared with relatively labile disulfide bonds such as huC242-SPP-DM1. […] The non-cleavable SMCC linkage is therefore much more resistant to maytansinoid-linker cleavage activities present in vivo than the SPP-DM1 conjugate. […] This increased exposure could have substantial impact on drug efficacy in some cases.

[14] = acute toxicity test, single intravenous dose; type: in vivo, female CD-1 mice
Description: Maytansinoid conjugates prepared with non-cleavable linkers such as SMCC show an unexpected increased tolerability in mice compared with conjugates prepared with cleavable disulfide linkers. An acute toxicity test with a single intravenous dose was carried out in female CD-1 mice. A comparison of the tolerability of a huC242-SMCC-DM1 conjugate (non-cleavable) with huC242 conjugates prepared with linkers containing cleavable disulfide bonds was conducted by monitoring the death of mice (FIGS. 12A and B) and signs of toxicity (FIGS. 12C and D) over a series of four escalating doses of each conjugate. The maximum tolerated dose (MTD) for the SMCC-DM1 conjugate was greater than the highest dose tested (150 mg/kg) while the MTD for the disulfide-linked conjugate SPP-DM1 was in the range of 45-90 mg/kg.

[15] = system: COLO205 cells; test: cell cycle arrest by flow cytometry; type: cell-based, human; settings: 30 hours post-treatment
Description: Maytansinoid conjugates are thought to impart their cell destroying activity through the inhibition of microtubule polymerization. This inhibition of microtubule polymerization leads to an arrest of the cell cycle principally at G2/M. The antigen-dependent arrest of cells at G2/M by antibody-maytansinoid conjugates can be monitored by flow cytometry analysis (FIG. 13). Treatment of COLO205 cells with huC242-SPP-DM1 or huC242-SMCC-DM1 conjugate results in a complete G2/M arrest by 6-10 hours. […] The difference in the durability of the activity of these two conjugates is also reflected in percentage of dead cells at the 30 hour time point, as judged by a dye exclusion assay using trypan blue.

[16] = system: COLO 205 cell line; test: cell destroying activity, antigen-positive cells (bystander study); type: cell-based, human; settings: COLO 205 cultured separately
From the text: (§1) An additional aspect of conjugates prepared with non-cleavable linkers compared to conjugates that have cleavable disulfide linkers is the absence of activity toward antigen-negative cells when in close proximity to antigen-positive cells, termed here the bystander effect. That is, the conjugates prepared with non-cleavable linkers have minimal bystander activity. […] This minimal bystander activity of the non-cleavable conjugate, as measured in this in vitro assay, may contribute to the increased tolerability of conjugate with non-cleavable linkers observed in acute toxicity studies.

[17] = system: Namalwa cells; test: cell destroying activity, antigen-negative cells (bystander study); type: cell-based
From the text: as §1

[18] = Pharmacokinetic Studies of huC242-SPP-DM1 and huC242-SCC-DM1 conjugates inCD-1 Mice Plasma clearance curves and Pharmacokinetic parameters
From the text: Table printed on a drawing sheet, FIG. 11
Title: Pharmacokinetic Studies of huC242-SPP-DM1 and huC242-SCC-DM1 conjugates inCD-1 Mice Plasma clearance curves and Pharmacokinetic parameters
First reader's note: Rows without -DM1 (huC242-SMCC, huC242-SPP) appear to be the antibody component of the same conjugates, as in the plot legend; study in CD-1 mice.

[19] = in vitro clonogenic / indirect cytotoxicity assays, cell line not given; type: cell-based; settings: for cytotoxicity in clonogenic assays in vitro: FIGS. 9, 22, 28
From the text: Cell-binding agent maytansinoid conjugates of the invention can be evaluated for their ability to suppress proliferation of various cell lines in vitro. For example, cell lines such as the human colon carcinoma line COLO205, the human melanoma cell line A375, the human myeloid leukemia cell line HL60, the human breast carcinoma line SKBR3, or the human epidermoid carcinoma cell line KB can be used for the assessment of cytotoxicity of these conjugates. Cells to be evaluated can be exposed to the compounds for 24 hours and the surviving fractions of cells measured in direct assays by known methods. (See, e.g. Goldmacher et al., 135 J. Immunol. 3648-3651 (1985), and Goldmacher et al., 102 J. Cell Biol. 1312-1319 (1986).) IC50 values can then be calculated from the results of the assays.

[20] = system: COLO 205 cells; test: indirect FACS binding assay on COLO 205 cells; set-up: species or system human; settings: higher than free huC242 antibody; COLO 205 cells
Description: The inventors carried out binding and cytotoxicity studies on the huC242-non-S-containing non-cleavable linker-DM1 conjugate. First, the binding affinities of huC242 antibody, huC242-SMNP-DM3, and huC242-non-S-containing non-cleavable linker-DM1 to COLO 205 cells were compared. 5×10^3 cells per well were used, with a three hour primary incubation on ice. The huC242-non-S-containing non-cleavable linker-DM1 conjugate had about a two-fold higher apparent dissociation constant than free antibody (see FIG. 23).

## COc1cc2cc(c1Cl)N(C)C(=O)C[C@H](OC(=O)[C@H](C)N(C)C(C)=O)[C@]1(C)O[C@H]1[C@H](C)[C@@H]1C[C@@](O)(NC(=O)O1)[C@H](OC)/C=C/C=C(\C)C2 [Maytansine]
[1]
  cleavage of the ester at C-3 by esterases: no esterase that cleaved the ester at C-3
[2]
  cells accumulating in mitosis: 67%
[3]
  inhibitory doses: 10^−3 to 10^−1 μg/ml
[4]
  inhibitory doses: 10^−3 to 10^−1 μg/ml
[5]
  inhibitory doses: 10^−3 to 10^−1 μg/ml
[6]
  inhibition of in vitro growth: active inhibitor
[7]
  lowest inhibitory concentration: 10^−7 μg/ml
[8]
  dosage range over which tumor growth was inhibited: 50- to 100 fold
[9]
  inhibitory activity in vivo: significant inhibitory activity
[10]
  inhibitory activity in vivo: significant inhibitory activity
[11]
  inhibitory activity in vivo: significant inhibitory activity
[12]
  clinical outcome / adverse effects: not favorable due to a number of side effects

B1: huC242-SPP-DM1: huC242 DM1 conjugate with relatively labile cleavable disulfide linker SPP (conjugate, chains of the INN, looked up)
VH: QVQLVQSGAEVKKPGETVKISCKASDYTFTYYGMNWVKQAPGQGLKWMGWIDTTTGEPTYAQKFQGRIAFSLETSASTAYLQIKSLKSEDTATYFCARRGPYNWYFDVWGQGTTVTVSS
VL: DIVMTQSPLSVPVTPGEPVSISCRSSKSLLHSNGNTYLYWFLQRPGQSPQLLIYRMSNLVSGVPDRFSGSGSGTAFTLRISRVEAEDVGVYYCLQHLEYPFTFGPGTKLELK
modifications: DM1 via SPP disulfide linker
[13]
  half-life for clearance: 40 to 50 h
[14]; at 150 mg/kg, post-treatment
  time by which lethal toxicity was observed for all mice: ≤ 96 h
[14]; at 150 mg/kg, single intravenous dose
  survival / lethal toxicity: lethal toxicity was observed for all mice
[14]; single intravenous dose, female CD-1 mice
  maximum tolerated dose (MTD): 45 to 90 mg/kg
[15]
  durability of cell cycle arrest: escape from cell cycle arrest and reinitiate cell division
[16]
  cell destroying activity: potent cell destroying activity
[17]; Namalwa cultured separately
  cell destroying activity: no activity
[17]; co-cultures of COLO 205 and Namalwa cells
  bystander cell destroying activity toward Namalwa cells: dramatic cell destroying activity
[18]
  AUC |: 9205.7 µg·h/mL
  CL |: 1.1 mL/h/kg
  Cmax |: 191.4 µg/mL
  Vss |: 0.0926 L/kg
  t1/2 | hour: 49.8 h

B2: huC242-SIAB-DM1: huC242 conjugate of DM1 synthesized with the non-cleavable linker SIAB (conjugate, chains of the INN, looked up)
VH: B1 VH
VL: B1 VL
modifications: DM1 via SIAB linker
[19]
  cytotoxicity in clonogenic assays in vitro: potent and antigen-specific cytotoxicity

B3: huC242-non-S-containing non-cleavable linker-DM1: huC242 conjugated with a maytansinoid active ester forming a non-sulfur-containing non-cleavable linker (conjugate, chains of the INN, looked up)
VH: B1 VH
VL: B1 VL
modifications: DM1 via non-sulfur non-cleavable linker
[20]
  apparent dissociation constant relative to free antibody: two
[19]; FIG. 22
  in vitro cytotoxicity compared with huC242-SMNP-DM3: comparable to huC242-SMNP-DM3
[19]
  cytotoxicity in clonogenic assays in vitro: potent and antigen-specific cytotoxicity
[19]; in vitro cytotoxicity, FIG. 22
  IC50: 7 pM
